Bridges are numbered along the chain shown (N, C = ends). [ ]: non-standard residue; d: D form. Phe(4-F) = N[C@@H](Cc1ccc(F)cc1)C(=O)O; 2Nal = N[C@@H](Cc1ccc2ccccc2c1)C(=O)O; Cit = NC(=O)NCCC[C@H](N)C(=O)O; Dab = NCC[C@H](N)C(=O)O
B1: Example 101 (peptide)
peptide: cyclo(YR[Cit]CSG[dP]RR[2Nal]CYQK[dP]P)
modifications: disulfide 4-11
SMILES: N=C(N)NCCC[C@@H]1NC(=O)[C@H](CCCNC(=N)N)NC(=O)[C@H]2CCCN2C(=O)CNC(=O)[C@H](CO)NC(=O)[C@@H]2CSSC[C@H](NC(=O)[C@H](Cc3ccc4ccccc4c3)NC1=O)C(=O)N[C@@H](Cc1ccc(O)cc1)C(=O)N[C@@H](CCC(N)=O)C(=O)N[C@@H](CCCCN)C(=O)N1CCC[C@@H]1C(=O)N1CCC[C@H]1C(=O)N[C@@H](Cc1ccc(O)cc1)C(=O)N[C@@H](CCCNC(=N)N)C(=O)N[C@@H](CCCNC(N)=O)C(=O)N2
B2: Example 21 (peptide)
peptide: cyclo(YR[Cit]FRV[dP]RR[2Nal]VY[Cit]K[dP]P)
SMILES: CC(C)[C@@H]1NC(=O)[C@H](Cc2ccc3ccccc3c2)NC(=O)[C@H](CCCNC(=N)N)NC(=O)[C@H](CCCNC(=N)N)NC(=O)[C@H]2CCCN2C(=O)[C@H](C(C)C)NC(=O)[C@H](CCCNC(=N)N)NC(=O)[C@H](Cc2ccccc2)NC(=O)[C@H](CCCNC(N)=O)NC(=O)[C@H](CCCNC(=N)N)NC(=O)[C@H](Cc2ccc(O)cc2)NC(=O)[C@@H]2CCCN2C(=O)[C@H]2CCCN2C(=O)[C@H](CCCCN)NC(=O)[C@H](CCCNC(N)=O)NC(=O)[C@H](Cc2ccc(O)cc2)NC1=O
B3: Example 99 (peptide)
peptide: cyclo(YR[Phe(4-F)]CRG[dP]RR[2Nal]CYQK[dP]P)
modifications: disulfide 4-11
SMILES: N=C(N)NCCC[C@@H]1NC(=O)[C@@H]2CSSC[C@H](NC(=O)[C@H](Cc3ccc4ccccc4c3)NC(=O)[C@H](CCCNC(=N)N)NC(=O)[C@H](CCCNC(=N)N)NC(=O)[C@H]3CCCN3C(=O)CNC1=O)C(=O)N[C@@H](Cc1ccc(O)cc1)C(=O)N[C@@H](CCC(N)=O)C(=O)N[C@@H](CCCCN)C(=O)N1CCC[C@@H]1C(=O)N1CCC[C@H]1C(=O)N[C@@H](Cc1ccc(O)cc1)C(=O)N[C@@H](CCCNC(=N)N)C(=O)N[C@@H](Cc1ccc(F)cc1)C(=O)N2
B4: Example 102 (peptide)
peptide: cyclo(YRSCRG[dP]RRWCY[Cit]D[dP]P)
modifications: disulfide 4-11
SMILES: N=C(N)NCCC[C@@H]1NC(=O)[C@@H]2CSSC[C@H](NC(=O)[C@H](Cc3c[nH]c4ccccc34)NC(=O)[C@H](CCCNC(=N)N)NC(=O)[C@H](CCCNC(=N)N)NC(=O)[C@H]3CCCN3C(=O)CNC1=O)C(=O)N[C@@H](Cc1ccc(O)cc1)C(=O)N[C@@H](CCCNC(N)=O)C(=O)N[C@@H](CC(=O)O)C(=O)N1CCC[C@@H]1C(=O)N1CCC[C@H]1C(=O)N[C@@H](Cc1ccc(O)cc1)C(=O)N[C@@H](CCCNC(=N)N)C(=O)N[C@@H](CO)C(=O)N2
B5: Example 105 (peptide)
peptide: cyclo(YH[Cit]CRG[dP]RRWCY[Cit]K[dP]P)
modifications: disulfide 4-11
SMILES: N=C(N)NCCC[C@@H]1NC(=O)[C@@H]2CSSC[C@H](NC(=O)[C@H](Cc3c[nH]c4ccccc34)NC(=O)[C@H](CCCNC(=N)N)NC(=O)[C@H](CCCNC(=N)N)NC(=O)[C@H]3CCCN3C(=O)CNC1=O)C(=O)N[C@@H](Cc1ccc(O)cc1)C(=O)N[C@@H](CCCNC(N)=O)C(=O)N[C@@H](CCCCN)C(=O)N1CCC[C@@H]1C(=O)N1CCC[C@H]1C(=O)N[C@@H](Cc1ccc(O)cc1)C(=O)N[C@@H](Cc1c[nH]cn1)C(=O)N[C@@H](CCCNC(N)=O)C(=O)N2
B6: Example 97 (peptide)
peptide: cyclo(YRLCRG[dP]RR[2Nal]CYQK[dP]P)
modifications: disulfide 4-11
SMILES: CC(C)C[C@@H]1NC(=O)[C@H](CCCNC(=N)N)NC(=O)[C@H](Cc2ccc(O)cc2)NC(=O)[C@@H]2CCCN2C(=O)[C@H]2CCCN2C(=O)[C@H](CCCCN)NC(=O)[C@H](CCC(N)=O)NC(=O)[C@H](Cc2ccc(O)cc2)NC(=O)[C@@H]2CSSC[C@H](NC1=O)C(=O)N[C@@H](CCCNC(=N)N)C(=O)NCC(=O)N1CCC[C@@H]1C(=O)N[C@@H](CCCNC(=N)N)C(=O)N[C@@H](CCCNC(=N)N)C(=O)N[C@@H](Cc1ccc3ccccc3c1)C(=O)N2
B7: Example 100 (peptide)
peptide: cyclo(YRMCRG[dP]RR[2Nal]CYQK[dP]P)
modifications: disulfide 4-11
SMILES: CSCC[C@@H]1NC(=O)[C@H](CCCNC(=N)N)NC(=O)[C@H](Cc2ccc(O)cc2)NC(=O)[C@@H]2CCCN2C(=O)[C@H]2CCCN2C(=O)[C@H](CCCCN)NC(=O)[C@H](CCC(N)=O)NC(=O)[C@H](Cc2ccc(O)cc2)NC(=O)[C@@H]2CSSC[C@H](NC1=O)C(=O)N[C@@H](CCCNC(=N)N)C(=O)NCC(=O)N1CCC[C@@H]1C(=O)N[C@@H](CCCNC(=N)N)C(=O)N[C@@H](CCCNC(=N)N)C(=O)N[C@@H](Cc1ccc3ccccc3c1)C(=O)N2
B8: Example 96 (peptide)
peptide: cyclo(YRSCRG[dP]RR[2Nal]CYQK[dP]P)
modifications: disulfide 4-11
SMILES: N=C(N)NCCC[C@@H]1NC(=O)[C@@H]2CSSC[C@H](NC(=O)[C@H](Cc3ccc4ccccc4c3)NC(=O)[C@H](CCCNC(=N)N)NC(=O)[C@H](CCCNC(=N)N)NC(=O)[C@H]3CCCN3C(=O)CNC1=O)C(=O)N[C@@H](Cc1ccc(O)cc1)C(=O)N[C@@H](CCC(N)=O)C(=O)N[C@@H](CCCCN)C(=O)N1CCC[C@@H]1C(=O)N1CCC[C@H]1C(=O)N[C@@H](Cc1ccc(O)cc1)C(=O)N[C@@H](CCCNC(=N)N)C(=O)N[C@@H](CO)C(=O)N2
B9: Example 106 (peptide)
peptide: cyclo(YK[Cit]CRG[dP]RRWCY[Cit]K[dP]P)
modifications: disulfide 4-11
SMILES: N=C(N)NCCC[C@@H]1NC(=O)[C@@H]2CSSC[C@H](NC(=O)[C@H](Cc3c[nH]c4ccccc34)NC(=O)[C@H](CCCNC(=N)N)NC(=O)[C@H](CCCNC(=N)N)NC(=O)[C@H]3CCCN3C(=O)CNC1=O)C(=O)N[C@@H](Cc1ccc(O)cc1)C(=O)N[C@@H](CCCNC(N)=O)C(=O)N[C@@H](CCCCN)C(=O)N1CCC[C@@H]1C(=O)N1CCC[C@H]1C(=O)N[C@@H](Cc1ccc(O)cc1)C(=O)N[C@@H](CCCCN)C(=O)N[C@@H](CCCNC(N)=O)C(=O)N2
B10: Example 104 (peptide)
peptide: cyclo(YRTCRG[dP][Dab]R[2Nal]CYQK[dP]P)
modifications: disulfide 4-11
SMILES: C[C@@H](O)[C@@H]1NC(=O)[C@H](CCCNC(=N)N)NC(=O)[C@H](Cc2ccc(O)cc2)NC(=O)[C@@H]2CCCN2C(=O)[C@H]2CCCN2C(=O)[C@H](CCCCN)NC(=O)[C@H](CCC(N)=O)NC(=O)[C@H](Cc2ccc(O)cc2)NC(=O)[C@@H]2CSSC[C@H](NC1=O)C(=O)N[C@@H](CCCNC(=N)N)C(=O)NCC(=O)N1CCC[C@@H]1C(=O)N[C@@H](CCN)C(=O)N[C@@H](CCCNC(=N)N)C(=O)N[C@@H](Cc1ccc3ccccc3c1)C(=O)N2
B11: Example 107 (peptide)
peptide: cyclo(FR[Cit]CRG[dP]RRWCY[Cit]K[dP]P)
modifications: disulfide 4-11
SMILES: N=C(N)NCCC[C@@H]1NC(=O)[C@@H]2CSSC[C@H](NC(=O)[C@H](Cc3c[nH]c4ccccc34)NC(=O)[C@H](CCCNC(=N)N)NC(=O)[C@H](CCCNC(=N)N)NC(=O)[C@H]3CCCN3C(=O)CNC1=O)C(=O)N[C@@H](Cc1ccc(O)cc1)C(=O)N[C@@H](CCCNC(N)=O)C(=O)N[C@@H](CCCCN)C(=O)N1CCC[C@@H]1C(=O)N1CCC[C@H]1C(=O)N[C@@H](Cc1ccccc1)C(=O)N[C@@H](CCCNC(=N)N)C(=O)N[C@@H](CCCNC(N)=O)C(=O)N2
B12: Example 103 (peptide)
peptide: cyclo(YR[Cit]CRG[dP]RR[2Nal]CY[Cit]E[dP]P)
modifications: disulfide 4-11
SMILES: N=C(N)NCCC[C@@H]1NC(=O)[C@@H]2CSSC[C@H](NC(=O)[C@H](Cc3ccc4ccccc4c3)NC(=O)[C@H](CCCNC(=N)N)NC(=O)[C@H](CCCNC(=N)N)NC(=O)[C@H]3CCCN3C(=O)CNC1=O)C(=O)N[C@@H](Cc1ccc(O)cc1)C(=O)N[C@@H](CCCNC(N)=O)C(=O)N[C@@H](CCC(=O)O)C(=O)N1CCC[C@@H]1C(=O)N1CCC[C@H]1C(=O)N[C@@H](Cc1ccc(O)cc1)C(=O)N[C@@H](CCCNC(=N)N)C(=O)N[C@@H](CCCNC(N)=O)C(=O)N2
B13: Example 98 (peptide)
peptide: cyclo(YRVCRG[dP]RR[2Nal]CYQK[dP]P)
modifications: disulfide 4-11
SMILES: CC(C)[C@@H]1NC(=O)[C@H](CCCNC(=N)N)NC(=O)[C@H](Cc2ccc(O)cc2)NC(=O)[C@@H]2CCCN2C(=O)[C@H]2CCCN2C(=O)[C@H](CCCCN)NC(=O)[C@H](CCC(N)=O)NC(=O)[C@H](Cc2ccc(O)cc2)NC(=O)[C@@H]2CSSC[C@H](NC1=O)C(=O)N[C@@H](CCCNC(=N)N)C(=O)NCC(=O)N1CCC[C@@H]1C(=O)N[C@@H](CCCNC(=N)N)C(=O)N[C@@H](CCCNC(=N)N)C(=O)N[C@@H](Cc1ccc3ccccc3c1)C(=O)N2
B14: Example 95 (peptide)
peptide: cyclo(YRACRG[dP]RR[2Nal]CYQK[dP]P)
modifications: disulfide 4-11
SMILES: C[C@@H]1NC(=O)[C@H](CCCNC(=N)N)NC(=O)[C@H](Cc2ccc(O)cc2)NC(=O)[C@@H]2CCCN2C(=O)[C@H]2CCCN2C(=O)[C@H](CCCCN)NC(=O)[C@H](CCC(N)=O)NC(=O)[C@H](Cc2ccc(O)cc2)NC(=O)[C@@H]2CSSC[C@H](NC1=O)C(=O)N[C@@H](CCCNC(=N)N)C(=O)NCC(=O)N1CCC[C@@H]1C(=O)N[C@@H](CCCNC(=N)N)C(=O)N[C@@H](CCCNC(=N)N)C(=O)N[C@@H](Cc1ccc3ccccc3c1)C(=O)N2

Molecular target: human CXCR4 (human, UniProt P61073 1-352)
Assay: cell-based or functional assay

human CXCR4, sequence (P61073 whole entry): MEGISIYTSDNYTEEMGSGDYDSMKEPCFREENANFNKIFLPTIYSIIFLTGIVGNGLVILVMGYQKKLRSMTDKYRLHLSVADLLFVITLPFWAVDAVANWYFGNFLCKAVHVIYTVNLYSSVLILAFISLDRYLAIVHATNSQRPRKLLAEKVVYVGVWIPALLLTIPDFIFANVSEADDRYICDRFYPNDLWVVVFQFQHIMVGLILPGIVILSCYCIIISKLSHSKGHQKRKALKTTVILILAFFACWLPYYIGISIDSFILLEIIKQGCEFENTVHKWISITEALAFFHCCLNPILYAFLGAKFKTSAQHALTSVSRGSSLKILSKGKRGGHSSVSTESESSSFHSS

IC50 (nM) Ca2+ assay (method 2) [nM]	IC50 (nM) Ca2+ assay (method 1) [nM]	Binder
1.28		B1
	550	B2
4.2		B3
8		B4
0.62		B5
4.3		B6
7		B7
3		B8
3.1		B9
7.4		B10
3.8		B11
18.3		B12
3.9		B13
2.9		B14

— patent publication US20150087577A1 (POLYPHOR, published 2015)
